{"source": "patent US12655398B2", "about": "“Multipartite luciferase” (Promega Corporation, priority 2018, dated 2026)", "molecules": {"B1": {"name": "LgTrip 2098: β1-8-like polypeptide, SEQ ID NO: 17; SEQ ID NO: 31 with His tag (protein)", "chain": "MVFTLEDFVGDWEQTAAYNLDQVLEQGGVSSLLQNLAVSVTPIQRIVRSGENALKIDIHVIIPYEGLSADQMAQIEEVFKVVYPVDDHHFKVILPYGTLVIDGVTPNMLNYFGRPYEGIAVFDGKKITVTGTLWNGNKIIDERLITPD"}, "B2": {"name": "LgTrip: β1-8-like polypeptide corresponding to SEQ ID NO: 17; variants LgTrip 2098 and LgTrip 3546 (protein)", "chain": "MVFTLEDFVGDWEQTAAYNLDQVLEQGGVSSLLQNLAVSVTPIQRIVRSGENALKIDIHVIIPYEGLSADQMAQIEEVFKVVYPVDDHHFKVILPYGTLVIDGVTPNMLNYFGRPYEGIAVFDGKKITVTGTLWNGNKIIDERLITPD"}}, "key": {"p65": {"system": "p65", "experiment": "Nuclear translocation assay (p65-HiBiT HeLa cells, LgBiT*-nuclear sensor)", "assay_type": "cell-based", "settings": "for Time to reach maximum accumulation of p65 in the nucleus upon stimulation: real time measurement", "source_text": "A nuclear translocation assay was developed using measuring p65 movement from cytosol to the nucleus under TNFa stimulus. The nuclear translocation assay was set up similar to the membrane translocation assay. […] The assay allows measurement of protein translocation in real time."}, "[1]": {"experiment": "Effect of urea on activity", "assay_type": "physicochemical", "description": "To test activity in the presence of urea, each enzyme was diluted to 1 uM in TBS+0.01% BSA+0.01% Tergitol and further diluted to 2 nM in TBS+0.01% BSA+0.01% Tergitol. […] A two-fold titration series was prepared for each, starting with 10M urea in 25 mM Tris pH 7.5+0.01% Tergitol. 10 uM furimazine was added to each sample of the titration series, and 5 ul of each enzyme or enzyme+pep263 (SEQ ID NO: 35) were combined with 45 ul of each substrate additive mixture. Plates were incubated for 3 minutes and then read on GMM+.\nTo test the effect of prolonged exposure to urea, each enzyme was diluted to 1 uM, and a two-fold titration series was prepared starting with 10M urea in 25 mM Tris pH 7.5+0.01% Tergitol. 2 ul of each enzyme was added to 198 ul of the urea titration (10 nM final of each enzyme). The “no” additive control was TBS+0.01% BSA+0.01% Tergitol. Samples were incubated for 26 hours. After incubation, samples were diluted 1:10,000 into TBS+0.01% BSA+0.01% Tergitol (10 ul in 990 ul two times). […] 50 ul of each sample was combined with 50 ul of NanoGlo® buffer+50 uM Furimazine. Plates were incubated for 3 minutes and then read on GMM+."}, "SmTrip10 pep86 / pep263": {"system": "SmTrip10 pep86 / pep263", "experiment": "Luminescence of LgBiT and LgTrip 2098 E. coli lysates with complementary peptide", "assay_type": "biochemical", "settings": "E. coli lysate, 25 nM peptide", "description": "(275 rpm) in a volume of 50 mL. From these cultures, 100× dilutions were made into the same media and the cultures grown at 37 C (275 rpm) for 3 h and then cooled to 25° C. before adding rhamnose (inducing agent for protein overexpression) to a final concentration of 0.2%. Cultures were then grown (induced) for 22 h at 25° C. (275 rpm) at which time cultures were harvested, and the resulting pellets stored at −20° C. until processing. To lyse cells, pellets were removed from −20° C., resuspended in 50 mL of PBS pH 7.2, and taken through 3 sequential freeze thaw cycles (−70° C. to 22° C.), centrifuged to produce soluble fractions, and then kept cold (on ice) until assaying. Lysates and peptide(s) (25 nm final concentration) were incubated together for 10 minutes at 25° C. prior to the addition of NanoGlo® reagent. After addition of reagent, plates were incubated for another 5 min at 35° C. and read over time to measure luminescence (RLU) using a Tecan Infinite F500 plate reader."}, "[2]": {"system": "SmTrip10 pep86 and SmTrip9 pep245", "experiment": "LgTrip 2098 activation by separate β9 and β10-like peptides", "assay_type": "biochemical", "settings": "10× concentrated lysate, peptides at 500 nM", "description": "The luminescence of LgTrip 2098 (SEQ ID NO: 31) was monitored over time in the presence of separate peptides corresponding to the β10 and β9 portions of the full-length luciferase (SmTrip10 pep86 (SEQ ID NO: 25) and SmTrip9 pep245) (SEQ ID NO: 23) (FIG. 2). Similar experimental protocols were used as in Example 1; however, a 10× concentrated lysate was used, Peptides SmTrip10 pep86 and SmTrip9 pep245 were used at 500 nM, and 0.001% Prionex added to reactions. […] Controls with no peptides added or only one of the peptides added produced near the background of the plate reader."}, "Effect of pH on activity": {"experiment": "Effect of pH on activity", "assay_type": "physicochemical", "settings": "pH titration series of universal buffer", "description": "A universal buffer was prepared containing 25 mM of each: NaCitrate, MES, PIPES, HEPES, TAPS, and Thiourea in 0.5% Tergitol. The buffer was divided into 8 aliquots of 20 ml, and NaOH or HCl was added to create a pH titration series.\nTo test effect of pH on activity, each enzyme was diluted to 1 uM and then diluted to 0.4 nM in 3 ml of TBS+0.01% BSA+0.01% Tergitol. […] Assay reagent for each pH buffer tested (Table 5) (20 ul of furimazine in 980 of buffer). 10 ul of each enzyme/peptide dilution was combined with 50 ul of assay reagent. Plates were incubated for 3 minutes and read on GMM+.\nTo test the effect of prolonged exposure varying pH, each enzyme was diluted to 1 uM in TBS+0.01% BSA+0.01% Tergitol, which was then diluted to 20 nM in each buffer. T=0 samples were mixed and then diluted 1:10 into 200 mM HEPES pH 7.5+0.01% BSA+0.01% Tergitol and stored at 4° C. T=8 samples were mixed and then diluted 1:10 into 200 mM HEPES pH 7.5+0.01% BSA+0.01% Tergitol store at 4° C. T=24 samples were mixed and then diluted 1:10 into 200 mM HEPES pH 7.5+0.01% BSA+0.01% Tergitol store at 4° C. […] 40 ul of each sample was diluted with 40 ul of NanoGlo® buffer+40 uM furimazine, incubated for 3 minutes, and then read on GMM+."}}, "data": [{"molecule": "TNFα", "values": [{"measurement": "EC50, titration of TNFα", "setting": "p65; p65-HiBiT cell line transfected with LgBiT*-nuclear sensor", "value": 0.7, "unit": "ng/mL"}, {"measurement": "Fold-response, titration of TNFα", "setting": "p65; p65-HiBiT cells, LgBiT*-nuclear sensor", "value": 4, "unit": "fold"}, {"measurement": "Time to reach maximum accumulation of p65 in the nucleus upon stimulation", "setting": "p65", "value": 30, "unit": "min"}, {"measurement": "Time to reach maximum accumulation of p65 in the nucleus upon stimulation", "setting": "p65; listed as TNFa", "value": "approximately 30 min"}]}, {"molecule": "B1", "values": [{"measurement": "Activity after prolonged (26 hour) exposure to urea", "setting": "[1]; 26 hours incubation in urea titration", "value": "regain activity upon prolonged treatment with urea"}, {"measurement": "Activity in the presence of urea (susceptibility to inactivation)", "setting": "[1]; urea titration from 10M, with pep263 for LgBiT and LgTrip", "value": "least effected by urea"}, {"measurement": "Gain in signal in the presence of complementary peptide", "setting": "SmTrip10 pep86 / pep263", "value": "greater"}, {"measurement": "Activation by separate β9 and β10 peptides", "setting": "[2]", "value": "activated by the addition of SmTrip10 pep86 and SmTrip9 pep245"}]}, {"molecule": "B2", "values": [{"measurement": "Effect of pH on activity", "setting": "Effect of pH on activity", "value": "resistant to a wide pH range"}]}]}
